Target: the molecule itself
Assay: crystal structure; micro-batch under oil at 4 °C with seeding; 0.1 M magnesium sulfate heptahydrate, 0.1 M sodium acetate pH 5, 20% (w/v) PEG 1000; space group P4(3)2(1)2; 2.12 Å; two protomers in the asymmetric unit

B1: human TINCR protein (natural protein, UniProt A0A2R8Y7D0 1-87, looked up)
chain: MEGLRRGLSRWKRYHIKVHLADEALLLPLTVRPRDTLSDLRAQLVGQGVSSWKRAFYYNARRLDDHQTVRDARLQDGSVLLLVSDPR
notes: TINCR ubiquitin-like microprotein, human; The N-terminal 15-residue cap is visible in protomer A only; also called TINCR ubiquitin-like microprotein; TINCR recombinant protein
binding result: binds
